{"source": "IntAct's records for PubMed 18555782", "target": "hsp7f_yeast SSE1 (UniProt P32589)", "sequence (P32589 whole entry)": "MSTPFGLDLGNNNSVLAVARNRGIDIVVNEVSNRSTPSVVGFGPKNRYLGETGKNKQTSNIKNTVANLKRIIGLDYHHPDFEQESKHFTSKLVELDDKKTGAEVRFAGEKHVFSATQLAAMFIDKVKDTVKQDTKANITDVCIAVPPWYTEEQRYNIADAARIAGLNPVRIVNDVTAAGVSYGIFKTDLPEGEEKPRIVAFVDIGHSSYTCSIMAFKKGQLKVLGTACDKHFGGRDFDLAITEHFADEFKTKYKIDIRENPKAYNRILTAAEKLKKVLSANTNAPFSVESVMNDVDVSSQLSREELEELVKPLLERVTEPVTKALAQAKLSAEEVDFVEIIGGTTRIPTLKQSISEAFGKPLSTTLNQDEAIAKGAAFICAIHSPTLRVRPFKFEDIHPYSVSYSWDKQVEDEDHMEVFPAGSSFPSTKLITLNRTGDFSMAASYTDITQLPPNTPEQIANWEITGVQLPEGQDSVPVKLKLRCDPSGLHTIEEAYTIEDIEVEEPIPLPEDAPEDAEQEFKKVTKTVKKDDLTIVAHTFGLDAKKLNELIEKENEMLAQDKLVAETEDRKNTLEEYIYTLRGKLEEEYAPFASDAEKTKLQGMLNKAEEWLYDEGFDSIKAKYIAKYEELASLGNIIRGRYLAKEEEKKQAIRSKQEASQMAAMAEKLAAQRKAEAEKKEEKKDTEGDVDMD", "data": [{"substance": "Heat shock protein SSA1 (Saccharomyces cerevisiae), P10591 A297E", "values": [{"measurement": "effect of a mutation on the interaction", "result": "decreasing interaction"}]}, {"substance": "Heat shock protein SSA1 (Saccharomyces cerevisiae), P10591 Q31A", "values": [{"measurement": "effect of a mutation on the interaction", "result": "decreasing interaction"}]}]}
